Patent US20240368285A1 (HEFEI TG IMMUNOPHARMA, published 2024)

Assays:
[1] = molecular target: T1, MICA protein (SPR analyte) (human, UniProt Q29983 24-308, limits assumed); assay: SPR, Biacore 8K, antibody captured on protein A chip, MICA as analyte
T1 construct: also called major histocompatibility complex class I chain related polypeptide A
T1 sequence: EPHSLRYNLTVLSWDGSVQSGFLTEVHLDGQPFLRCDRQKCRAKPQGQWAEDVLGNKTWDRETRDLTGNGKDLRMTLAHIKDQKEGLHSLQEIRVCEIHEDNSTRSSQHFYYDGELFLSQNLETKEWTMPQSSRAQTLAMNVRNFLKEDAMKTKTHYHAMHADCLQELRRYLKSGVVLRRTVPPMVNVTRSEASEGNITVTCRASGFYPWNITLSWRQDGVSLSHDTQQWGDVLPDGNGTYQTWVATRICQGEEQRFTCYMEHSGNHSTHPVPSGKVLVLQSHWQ
Procedure: In a Biacore 8K (Cytiva) system, the antibody was diluted to a concentration of 10 µg/mL with running buffer (HBS-EP), and the antibody was conjugated onto a protein A (Cytiva, 29127556) chip at a flow rate of […].
Kinetic and affinity data of binding of the maternal antibody h5A1 and the affinity maturation antibody h5A1002 and MICA were detected.

MICA002α3-Fc = molecular target: T2, MICA002α3-Fc (human); assay: ELISA on coated MICA*002 α3-Fc (1 µg/ml), HRP anti-human Fab secondary, OD450
T2 construct: Produced in the Applicant's laboratory; also called MICA*002-Fc; domain α3 of MICA-002 Fc fusion protein
Procedure: (§1) After the antibodies were added, signal intensity was used for judging the binding characteristics of the antibodies and MICA and MICB.
(§2) The fusion proteins (produced in the Applicant's laboratory; an amino acid sequence of MICA002α3-Fc is as set forth in SEQ ID NO: 22; an amino acid sequence of MICA005α3-Fc is as set forth in SEQ ID NO: 24; an amino acid sequence of MICA008α3-Fc is as set forth in SEQ ID NO: 25; an amino acid sequence of MICA004α3-Fc is as set forth in SEQ ID NO: 23; an amino acid sequence of MICB001α3-Fc is as set forth in SEQ ID NO: 26; and an amino acid sequence of MICB005α3-Fc is as set forth in SEQ ID NO: 27) were diluted to a concentration of 1 μg/ml with PBS and then added into a 96-well plate in a volume of 100 μl/well. The plate was placed at 4° C. overnight. The PBS in the 96-well plate was removed by sucking. After the plate was washed with PBST (that is, PBS having a pH value of 7.2 included 0.1 volume % of Tween 20) for 6 times, PBS containing 10% of BSA was added in a volume of 200 μl/well. The plate was incubated at 37° C. for 2 hours for blocking. The blocking solution was removed. […]

MICB001α3-Fc = molecular target: T3, MICB001α3-Fc; assay: ELISA on coated MICB*001 α3-Fc (1 µg/ml), HRP anti-human Fab secondary, OD450
T3 construct: also called MICB*001-Fc; domain α3 of MICB-001 Fc fusion protein
Procedure: as §1, §2

[2] = molecular target: T4, MICA on human tumor cells (A-375, A549, HCT-15, MDA-MB-231) (human, UniProt Q29983 24-383); assay: flow cytometry on A-375 cells, Alexa-647 goat anti-human secondary, average fluorescence intensity
T4 construct: whole, on cells
T4 sequence (looked up): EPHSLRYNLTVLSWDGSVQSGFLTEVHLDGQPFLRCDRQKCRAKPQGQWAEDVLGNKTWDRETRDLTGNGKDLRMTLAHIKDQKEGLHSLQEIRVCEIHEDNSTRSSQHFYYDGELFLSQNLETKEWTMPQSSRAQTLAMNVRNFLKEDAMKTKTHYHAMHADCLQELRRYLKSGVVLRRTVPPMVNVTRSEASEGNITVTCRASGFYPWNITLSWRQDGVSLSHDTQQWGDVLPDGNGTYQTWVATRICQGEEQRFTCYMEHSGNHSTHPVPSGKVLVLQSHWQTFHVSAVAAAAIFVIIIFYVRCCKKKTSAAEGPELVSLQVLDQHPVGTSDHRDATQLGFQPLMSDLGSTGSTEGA
Procedure: (1) Tumor cells were diluted to a density of 2×10⁶/mL with PBS and then added into a 1.5 ml EP tube in a volume of 100 l/tube. 10 l/tube of goat serum was added into the EP tube; and blocking was conducted at 4° C. for 30 min. Antibody h5A1 (having a heavy chain sequence as set forth in SEQ ID NO: 11 and a light chain sequence as set forth in SEQ ID NO: 12), antibody h5A1002 (having a heavy chain sequence as set forth in SEQ ID NO: 13 and a light chain sequence as set forth in SEQ ID NO: 14), and control IgG1 (purchased from Biointron) were gradient-diluted (at a highest working concentration of 50 μg/ml, 10 gradients, diluted by 3 times for each gradient) and added. The tube was incubated at 4° C. for 30 min. 1 mL of PBS was added into the EP tube, and centrifugation was conducted 4° C. at a rate of 3,500 rpm for 5 min. The supernatant was removed. The EP tube was washed once with the PBS. The supernatant was removed after centrifugation. The cells were resuspended with PBS in a volume of 100 l/tube. An Alexa-647 labeled goat anti-human secondary antibody (purchased from Jackson lab) was added into the tube in a volume of 1 l/tube; and the plate was incubated in the dark at 4° C. for 30 min. The tube was washed twice with PBS, and the supernatant was removed after centrifugation. […]

T2 sequence (chain, as listed by the source limits assumed): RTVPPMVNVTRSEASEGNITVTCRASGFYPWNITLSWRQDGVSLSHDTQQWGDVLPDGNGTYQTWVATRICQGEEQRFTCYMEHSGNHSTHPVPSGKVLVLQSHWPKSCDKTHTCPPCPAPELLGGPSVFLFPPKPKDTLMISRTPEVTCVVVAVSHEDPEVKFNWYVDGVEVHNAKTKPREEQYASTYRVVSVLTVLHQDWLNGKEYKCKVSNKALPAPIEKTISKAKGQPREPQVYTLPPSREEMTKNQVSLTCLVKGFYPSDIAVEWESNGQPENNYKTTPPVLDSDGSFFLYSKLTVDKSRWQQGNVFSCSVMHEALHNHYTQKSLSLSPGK
T3 sequence (chain, as listed by the source limits assumed): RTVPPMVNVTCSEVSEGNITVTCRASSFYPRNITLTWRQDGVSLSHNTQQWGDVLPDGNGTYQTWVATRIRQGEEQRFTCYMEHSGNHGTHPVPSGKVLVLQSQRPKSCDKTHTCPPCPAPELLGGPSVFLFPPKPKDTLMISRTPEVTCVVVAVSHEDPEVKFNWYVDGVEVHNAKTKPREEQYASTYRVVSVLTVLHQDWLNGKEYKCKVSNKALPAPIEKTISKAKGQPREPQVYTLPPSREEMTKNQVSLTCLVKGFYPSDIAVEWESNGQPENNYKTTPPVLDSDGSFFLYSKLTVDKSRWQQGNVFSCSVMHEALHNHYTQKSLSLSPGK

Kd [1]: 5.4 nM | koff [1]: 0.000129 s⁻¹ | kon [1]: 23800 M⁻¹ s⁻¹ | EC50 (read off the curve) (MICA002α3-Fc): ~60 ng/mL | EC50 (read off the curve) (MICB001α3-Fc): ~50 ng/mL | EC50 (read off the curve) [2]: ~2 µg/mL
B1: affinity maturation antibody h5A1002 (antibody, V domains shown)
VH: QVQLQESGPGLVKPSETLSLTCTVSGFSLTTYGGHWIRQPPGKGLEWIGMIWTDGWTDYNAAFISRVTISVDTSKNQFSLKLSSVTAADTAVYYCARKGHGYYYAMDYWGQGTLVTVSS
VL: EIVLTQSPGTLSLSPGERATLSCTASSSVSSSYLHWYQQKPGQAPRLLIYSTSNLISGIPDRFSGSGSGTDFTLTISRLEPEDFAVYYCHQYHRSPFTFGQGTKLEIKR
notes: Human IgG1, kappa; also called h5A1002-hIgG1
